# Test results: FireProtDB (doi:10.1016/0022-2836(92)90387-y)
# B1: Ribonuclease, P00648 (parent)
# chain: MMKMEGIALKKRLSWISVCLLVLVSAAGMLFSTAAKTETSSHKAHTEAQVINTFDGVADYLQTYHKLPDNYITKSEAQALGWVASKGNLADVAPGKSIGGDIFSNREGKLPGKSGRTWREADINYTSGFRNSDRILYSSDWLIYKTTDHYQTFTKIR
# Variants of: B1
# Conditions: Bacillus amyloliquefaciens; pH 6.3; 25 °C; Urea; Fluorescence; MES 50 mM; reversible: yes; structure 1BNI; whole UniProt chain shown
Variant,ddG of mutation (higher = less stable),unfolding free energy
MMKMEGIALKKRLSWISVCLLVLVSAAGMLFSTAAKTETSSHKAHTEAQVINTFDGVADYLQTYHKLPDNYITKSEAQALGWVASKGNLADVAPGKSIGGDIFSNREGKLPGKSGRTWREADINYTSGFRNSDRILYSSDWLIYKTTDAYQTFTKIR [H149A],0.24 kcal/mol,8.59 kcal/mol
MMKMEGIALKKRLSWISVCLLVLVSAAGMLFSTAAKTETSSHKAHTEAQVINTFDGVADYLQTYHKLPDNYITKSEAQALGWVASKGNLADVAPGKSIGGDIFSDREGKLPGKSGRTWREADINYTSGFRNSDRILYSSDWLIYKTTDHYQTFTKIR [N105D],-0.4 kcal/mol,9.23 kcal/mol
MMKMEGIALKKRLSWISVCLLVLVSAAGMLFSTAAKTETSSHKAHTEAQVINTFDGVADYLQTYHKLPDNYITASEAQALGWVASKGNLADVAPGKSIGGDIFSNREGKLPGKSGRTWREADINYTSGFRNSDRILYSSDWLIYKTTDHYQTFTKIR [K74A],-0.36 kcal/mol,9.19 kcal/mol
MMKMEGIALKKRLSWISVCLLVLVSAAGMLFSTAAKTETSSHKAHTEAQVINTFDGVADYLQTYHKLPDNYITKSEAQALGWVASKGNLADVAPGKSIGGDIFSNAEGKLPGKSGRTWREADINYTSGFRNSDRILYSSDWLIYKTTDHYQTFTKIR [R106A],-0.64 kcal/mol,9.47 kcal/mol
MMKMEGIALKKRLSWISVCLLVLVSAAGMLFSTAAKTETSSHKAHTEAQVINTFDGVADYLQTYHKLPDNYITKSEAQALGWVASKGNLADVAPGKSIGGNIFSNREGKLPGKSGRTWREADINYTSGFRNSDRILYSSDWLIYKTTDHYQTFTKIR [D101N],2.67 kcal/mol,8.16 kcal/mol
MMKMEGIALKKRLSWISVCLLVLVSAAGMLFSTAAKTETSSHKAHTEAQVINTFDGVADYLQTYHKLPDNYITKSEAQALGWVASKGNLADVAPGKSIGGDIFSNREGKLPGKSGRTWREADINYTSGFRNSDRILYSSDWLIYKTTDHYATFTKIR [Q151A],0.16 kcal/mol,8.67 kcal/mol
MMKMEGIALKKRLSWISVCLLVLVSAAGMLFSTAAKTETSSHKAHTEAQVINTFDGVADYLQTYHKLPDNYITKSEAQALGWVASKGNLADVAPGKSIGGDIFSNREGKLPGKSGRTWRAADINYTSGFRNSDRILYSSDWLIYKTTDHYQTFTKIR [E120A],2.3 kcal/mol,6.53 kcal/mol
MMKMEGIALKKRLSWISVCLLVLVSAAGMLFSTAAKTETSSHKAHTEAQVINTFDGVADYLQTYHKLPDNYITKSEAQALGWVASKGNLADVAPGKSIGGDIFSNREGKLPGKSGRTWREADINYTSGFRNSDRILYSSDWLIYKTTDHFQTFTKIR [Y150F],0 kcal/mol,8.83 kcal/mol
MMKMEGIALKKRLSWISVCLLVLVSAAGMLFSTAAKTETSSHKAHTEAQVINTFDGVADYLQTYHKLPDNYITKSEAQALGWVASKGNLADVAPGKSIGGDIFANREGKLPGKSGRTWREADINYTSGFRNSDRILYSSDWLIYKTTDHYQTFTKIR [S104A],-0.15 kcal/mol,8.98 kcal/mol
